Laboratory results published in US11034736B2, “Anti-viral cnidarins” (priority 2014, dated 2021).

How the values were obtained:
HIV-1IIIB [1] = assay: Viral attachment assay, cell-associated p24 antigen in HeLa CD4 LTR β-gal cells; assay type: cell-based
Method: (§1) Attachment and fusion assays were performed in HeLa-CD4-LTR-β-galactosidase cell lines as described previously (Gartner & Popovic, (1990), supra) with the following modifications. Following the interaction of HIV-1IIIIIB with HeLa CD4 LTR β-gal cells, viral attachment to HeLa CD4 LTR β-gal cells was detected as cell-associated p24 antigen following a 1 hour adsorption of virus and vigorous washing for removal of unbound virus. Fusion of HIV-1IIIIB with HeLa CD4 LTR β-gal cells was detected by chemiluminescence using a single-step lysis and detection method (Tropix Gal-screen, Bedford, Mass.) and results reported as EC50 values. Chicago Sky Blue, a polysulfonic acid dye inhibitor of HIV attachment and fusion, was used as a positive control for all assays (Clanton et al., J. Acquired Immune Defic. Syndr., 5: 771-781 (1992)).

HIV-1US/92/727 = assay: Anti-HIV evaluation in PHA-stimulated human PBMCs, reverse transcriptase in supernatant; assay type: cell-based; details: HIV-1US/92/727, human PBMCs, 7 days
Method: The cultures were incubated for 7 days at 37° C./5% CO2. Efficacy of the compounds was evaluated by measuring the amount of reverse transcriptase in the culture supernatant and toxicity was evaluated using XTT to measure cell viability. AZT was evaluated in parallel as an assay control.

Macrophage = assay: Cell viability of monocyte/macrophage cultures (CellTiter formazan dye reduction); assay type: cell-based, human; details: macrophages
From the text: (§2) To test the anti-HIV activity of CNID1 against HIV primary isolates in fresh human cells, monocyte-tropic HIV-1 strain Ba-L was obtained from the NIAID AIDS Research and Reference Reagent Program (National Institutes of Health, Bethesda, Md.). The low passage HIV-1 pediatric isolate ROJO was derived as described previously (Buckheit et al., AIDS Res. Hum. Retroviruses, 10: 1497-1506 (1994)). Human peripheral blood mononuclear cells (PBMCs) and macrophages were isolated from hepatitis and HIV seronegative donors following Ficoll-Paque centrifugation as described elsewhere (Gartner & Popovic, Techniques in HIV Research, Aldovini, A. and Walker B., eds., pp. 59-63, Stockton Press, New York, 1990). Antiviral assays were carried out with 3-day-old phytohaemagglutinin/interleukin-2 stimulated PBMCs or 6-day-cultured monocyte/macrophages. […] HIV-1 replication in PBMC (ROJO) or monocyte macrophage (Ba-L) cultures were determined by measurement of reverse transcriptase activity (Buckheit et al., Antiviral Res., 21: 247-265 (1993)) in the supernatants or p24 antigen expression by ELISA (Coulter, Hialeah, Fla.), respectively. Cell viability by formazan dye reduction was determined in replicated cultures using the CellTiter reagent (Promega, Madison, Wis.). […]

HIV-1ROJO = assay: HIV-1 ROJO replication in human PBMC cultures, supernatant reverse transcriptase activity; assay type: cell-based; details: T-tropic primary isolate
From the text: as §2

HIV-1HXB2 gp41 = HIV-1HXB2 gp41 (Human immunodeficiency virus type 1 group M subtype B, UniProt P04578); details: ELISA, 100 ng/well gp41
Method: High protein binding Greiner 96-well plates (VWR, Bridgeport, N.J.) were coated with 1 pmol/well of recombinant HIV-1IIIIB gp120 (Immuno Diagnostics, Woburn, Mass.) or recombinant HIV-1HXB2 gp41 (Vybion Inc., Ithaca, N.Y.) at 4° C. overnight. The wells were emptied and then blocked with 200 μl/well of 3% non-fat dry milk (Bio-Rad, Hercules, Calif.) blocking solution for 2 hrs. A control plate was incubated with blocking solution only. After washing three times with PBST, 0.5-log10 serial dilutions of rCNID-1-Trx were added to triplicate wells of gp120−, gp41− and the blocking solution control plate, and the plates were incubated for 2 hrs. The plates were washed with PBST and 100 W/well of a 1:250 dilution of polyclonal rabbit anti-CNID-1 antibody was added and allowed to incubate for 1 hr, followed by three washes with PBST. Goat anti-rabbit (H+L), peroxidase conjugated secondary antibody (Thermo Fisher Scientific Inc., Rockford, Ill.) was added to each well (100 μl/well of a 1:1000 dilution) and further incubated for 1 hr, followed by three washes with PBST. The TMB 2-component Microwell peroxidase substrate kit (KPL Inc., Gaithersburg, Md.) was used for peroxidase detection: 100 W/well, incubation for 5-10 min and the reaction was stopped by addition of 0.5M HCl (100 W/well) before reading the absorbance at 450 nm.

HIV-1IIIB [2] = assay: Viral fusion assay, chemiluminescence in HeLa CD4 LTR β-gal cells; assay type: cell-based
Method: as §1

HIV-1HXB2 gp41, sequence (P04578 512-856): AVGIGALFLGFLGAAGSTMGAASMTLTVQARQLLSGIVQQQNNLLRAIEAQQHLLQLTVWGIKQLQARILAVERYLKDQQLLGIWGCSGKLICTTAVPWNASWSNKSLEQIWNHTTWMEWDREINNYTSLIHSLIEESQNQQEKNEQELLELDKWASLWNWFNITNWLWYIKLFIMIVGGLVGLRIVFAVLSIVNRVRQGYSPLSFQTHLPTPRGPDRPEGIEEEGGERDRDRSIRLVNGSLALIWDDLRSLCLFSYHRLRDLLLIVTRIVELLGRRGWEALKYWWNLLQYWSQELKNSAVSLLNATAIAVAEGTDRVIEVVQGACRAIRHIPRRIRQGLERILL

B1: CNID-1: HIV-inhibitory protein from soft coral Synthecium sp.; 172 amino acids, 18,122 Da, SEQ ID NO: 1 (protein)
chain: GRATLGQLKTSTIPPVTFDVPFDGANIPQDVRFTIATVNGGKGALYNAELGESAGHTIVLESDGDHPIPGTFDPKSGRGLDYLPRGLVLFSSHNYVGNMKMYTEPDSDITADFPPGTPFGVSSAITGEGSAFQLNTGIDHTGEFEIIPPNTKRNLAGVFDNEIRSVSPTGGK
**Q.** How did the “Inhibition of viral attachment to the cell” value (HIV-1IIIB [1]) turn out when B1 was run?
**A.** Its value is “did not inhibit attachment”.

**Q.** And the EC50 (HIV-1IIIB [1]; read-out: Inhibition of Attachment EC50)?
**A.** The EC50 was greater than 55.2 nM.

**Q.** And the EC50 (HIV-1US/92/727)?
**A.** Its EC50 is 0.0427 mg/L.

**Q.** What about the CC50 (Macrophage) of the same molecule?
**A.** Its CC50 is 3.56 nM.

**Q.** And the EC50 (HIV-1ROJO)?
**A.** The EC50 was 3.97 nM.

**Q.** And the “Binding to gp41” value (HIV-1HXB2 gp41)?
**A.** Its value is “not gp41”.

**Q.** And the “Inhibition of viral fusion” value (HIV-1IIIB [2])?
**A.** Its value is “inhibit HIV viral fusion”.

**Q.** What about the EC50 (HIV-1IIIB [2]; read-out: Inhibition of Fusion EC50) of the same molecule?
**A.** The EC50 was 1.49 nM.
